The values below come from patent publication CN107042099A.

For assay [1], the target named is Myc-GST融合蛋白 (Myc-GST fusion protein). In words: indirect ELISA, Myc-GST coated at 5 μg/mL, HRP anti-His secondary antibody, heat test at 70℃. On the technique in general: In an ELISA, binding on a coated surface is turned into a signal by an enzyme label.
The target is the same in assay [2]. As to the kind of experiment: indirect ELISA, Myc-GST coated at 5 μg/mL, HRP anti-His secondary antibody, heat test at 80℃.
For assay [3] the target is unchanged. In words: indirect ELISA, Myc-GST coated at 5 μg/mL, HRP anti-His secondary antibody, heat test at 90℃.

B1: 抗c-Myc标签单域重链抗体 (anti-c-Myc tag single-domain heavy-chain antibody) (VHH, not shown: small tags and cut ends)
VHH: QLQLVESGGGLVRPGESLRLSCDASSSEPPLLAYVVSWFRQVPGKEREGISCSSSSGVRNSYADSVKGRFTISRDNHKNTVYLQMNSLQAEDTAIYYCAAARLGARGCDFREDLQGTWGQGTQVTVSS
Take B1: the OD450 came out at 1.4 OD450 in assay [1], 1.2 OD450 in assay [2] and 1 OD450 in assay [3].
